In patent US20170320956A1 (KYMAB, published 2017):
Residue numbers refer to the chain shown, from its start. Where two headings read alike, the source gives them in different places. One block for each binder: values may come before it.

What was measured:
[1] = biological target: T1, recombinant human LIGHT-214E, FLAG-tagged extracellular domain (human); assay: HTRF competition, LTβR-Fc binding to Flag-hLIGHT-214E
T1 construct: Trimer; Biotinylated in some assays
T1 chain: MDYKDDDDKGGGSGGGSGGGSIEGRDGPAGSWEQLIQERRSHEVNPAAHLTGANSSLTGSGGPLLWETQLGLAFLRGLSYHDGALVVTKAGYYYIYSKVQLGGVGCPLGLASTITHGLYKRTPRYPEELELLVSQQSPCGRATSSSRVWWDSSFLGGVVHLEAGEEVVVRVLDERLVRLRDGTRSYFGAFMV
Method: (§1) The following methods were carried out with a titration of inhibitor in order to establish the clone potency as measured by IC50 values in the assay. 5 μl of Flag-tagged hLIGHT (in-house) diluted to 2.5 nM final concentration (10 nM working concentration) in HTRF buffer with 5 μl of a titration of antibody purified from hybridoma supernatant diluted in HTRF assay buffer from 300 nM final (1200 nM working concentration) was pre-incubated for 1 hour at room temperature. To wells used to define total binding, 5 μl of LIGHT (10 nM working, 2.5 nM final) and 5 μl of hybridoma maintaining media (HMM,)) were added. To wells used to define non specific binding (receptor only) 10 μl of HMM was added. Total and non specific binding wells were pre-incubated for 1 hr at RT in the same plate as wells containing titration of inhibitor.
(§2) LIGHT receptor was diluted in HTRF assay buffer and added to all wells, 5 μl/well of HVEM-Fc or LTβR-Fc (R&D systems) at 1.2 nM for HVEM (0.3 nM final) and 0.4 nM for LTβR (0.1 nM final).

[2] = biological target: human LIGHT-214E, full length, expressed on the surface of CHO-S cells (human, UniProt O43557 1-240); assay: flow cytometry, CHO-S cells expressing hLIGHT-214E
[3] = biological target: T1, recombinant human LIGHT-214E, …; assay: cell-based or functional assay
[4] = biological target: T1, recombinant human LIGHT-214E, …; assay: HTRF competition, HVEM-Fc binding to Flag-hLIGHT-214E
Method: as §1, §2

[5] = biological target: T2, recombinant human LIGHT-214K, FLAG-tagged extracellular domain (human); assay: SPR ProteOn, mAb captured on anti-mouse IgG, LIGHT 256 nM, 25 C, apparent affinity
T2 construct: the IgK leader peptide is marked only by underlining (not visible here), so its residues were not removed; Trimer
T2 chain: T1 chain with E166K
Method: (§3) SPR analysis was carried out using the ProteOn™ XPR36 Array System (BioRad). Anti-mouse IgG (GE Healthcare BR-1008-38) was immobilised on a GLC biosensor surface using amine coupling, the surface was then blocked using 1M ethanolamine. […] Apparent affinities for the LIGHT-antibody interaction were determined using the 1:1 model inherent to the ProteOn XPR36 analysis software. The assay was run using HBS-EP (Teknova) as running buffer and carried out at 25° C.

[6] = biological target: T3, recombinant cynomolgus monkey LIGHT, FLAG-tagged extracellular domain (cynomolgus (Macaca fascicularis), UniProt E9NVF7 59-240); assay: as above
T3 construct: extracellular domain; also called cynomolgus LIGHT; cyno LIGHT
Method: as §3

[7] = biological target: T1, recombinant human LIGHT-214E, …; assay: as above
Method: as §3

[8] = biological target: T1, recombinant human LIGHT-214E, …; assay: HTRF competition, AlexaFluor 647 LTβR-Fc binding to Flag-hLIGHT-214E
Method: as §1
(§4) The final IgG4(PE) format lead panel was analysed for neutralization activity as in Example 3. Antibodies were tested for their ability to neutralize LIGHT binding to its receptors, HVEM and LTβR, in an HTRF assay. Antibodies were also tested for their ability to neutralize LIGHT-induced IL-8 release by HT29 colon carcinoma cells.
(§5) HTRF assays were performed as per Example 3, with the following modifications: HVEM-Fc and LTβR-Fc were labelled with AlexaFluor 647, and an anti-Flag K antibody (Cisbio) was used for detection.

[9] = biological target: T1, recombinant human LIGHT-214E, …; assay: HTRF competition, AlexaFluor 647 HVEM-Fc binding to Flag-hLIGHT-214E
Method: as §1, §4, §5

[10] = biological target: T4, rabbit LIGHT protein, FLAG-tagged extracellular domain (rabbit); assay: SPR ProteOn, mAb captured on anti-human IgG, 25 C
T4 chain: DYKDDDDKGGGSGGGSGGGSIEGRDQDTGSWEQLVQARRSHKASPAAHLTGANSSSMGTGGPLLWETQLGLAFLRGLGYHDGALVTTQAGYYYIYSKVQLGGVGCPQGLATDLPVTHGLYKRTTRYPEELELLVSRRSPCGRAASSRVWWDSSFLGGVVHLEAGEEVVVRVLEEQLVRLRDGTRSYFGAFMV
Method: This created a capture surface suitable for capturing human antibodies. The LIGHT antibodies were captured on this anti-human IgG surface, and then human and rabbit LIGHT proteins were passed over captured LIGHT Abs at a concentration of 200 nM. A buffer injection was used to double reference the LIGHT binding sensorgrams. The assay was run at 25° C., using HBS-EP as running buffer.

[11] = biological target: T1, recombinant human LIGHT-214E, …; assay: cell-based or functional assay
mouse LIGHT = biological target: T5, mouse LIGHT (mouse, UniProt Q9QYH9 72-239, limits assumed); assay: SPR ProteOn, mAb captured on anti-mouse IgG
T5 construct: also called murine LIGHT
T5 sequence (looked up): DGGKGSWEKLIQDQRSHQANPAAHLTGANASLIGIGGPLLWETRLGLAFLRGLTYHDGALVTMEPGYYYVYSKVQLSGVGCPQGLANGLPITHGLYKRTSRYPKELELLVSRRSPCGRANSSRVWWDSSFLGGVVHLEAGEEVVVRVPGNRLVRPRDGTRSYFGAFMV

[12] = biological target: T3, recombinant cynomolgus monkey LIGHT, …; assay: SPR ProteOn, mAb captured on anti-human IgG, 37 C
[13] = biological target: T1, recombinant human LIGHT-214E, …; assay: SPR ProteOn, mAb captured on anti-human IgG, 37 C

B2: 31A10 (purified from hybridoma supernatant) (antibody, V domains shown)
VH: QVQLQESGPGLVKPSGTLSLTCAVSGGSISSINWWNWVRQPPGKGLEWIGEVSHSGITNYNPSLKSRVTMSVDKAKNQFSLKLNSVTAADTAVYYCARERAVADYHGMDVWGQGTTVTVSS
VL: AIQLTQSPSSLSASVGDRVTITCRASQGISSALAWFQQKPGKPPKLLIFDASDLESGVSSRFSGSGSGTDFTLTISSLQPGDFATYYCQQFNSYPITFGQGTRLEIK
notes: Murine constant / human variable chimeric IgG, kappa, Protein G purified from hybridoma supernatant
IC50 [1]: 1.45 nM | binding result [2]: binds | HT29 IL-8 release, IC50 [3]: 0.217 nM | IC50 [4]: 0.662 nM | Kd [5]: 0.349 nM

B4: 29C09 (purified from hybridoma supernatant) (antibody, V domains shown)
VH: QEQLVQSGAEVKKPGASVKVSCKASGYTFTSYDINWVRQATGQGLEWMGWMNPNSGYTGYAQKFQGRVTMTRNTSIRTVYMELSSLRSEDTAVYYCARGGETFDIWGQGTMVTVSS
VL: SYELTQPPSVSVSPGQTARITCSGDALPKKYAYWYQQKSGQAPVLVIYEDSKRPSGIPERFSGSSSGTMATLTISGAQVEDEADYYCYSTDSSDNHSVFGTGTKVTVL
notes: Murine constant / human variable chimeric IgG, lambda, Protein G purified from hybridoma supernatant
IC50 [1]: 1.55 nM | binding result [2]: binds | HT29 IL-8 release, IC50 [3]: 0.33 nM | binding result (mouse LIGHT): no binding | IC50 [4]: 0.922 nM | Kd [5]: 0.605 nM | Kd [6]: 2.28 nM | Kd [7]: 0.311 nM

B7: 144F05 (purified from hybridoma supernatant) (antibody, V domains shown)
VH: QVQLQESGPGLVKPSGTLSLTCAVSGGSISSTHWWNWVRQPPGKGLEWIGEIYHSGSTNCNPSLKSRVTISVDKSKNQFSLKMNSVTAADTAVYYCTRGGAAAGTNYGLDVWGQGTTVTVSS
VL: not shown
notes: as for B2
IC50 [1]: 3.32 nM | binding result [2]: binds | HT29 IL-8 release, IC50 [3]: 2.75 nM | binding result (mouse LIGHT): no binding | IC50 [4]: 1.34 nM | Kd [5]: 5.78 nM | Kd [6]: 2.89 nM | Kd [7]: 3.25 nM

B9: 13H04 (purified from hybridoma supernatant) (antibody, V domains shown)
VH: QVQLVQSGAEVKKPGASVKVSCKASGYTFTSYGISWVRQAPGQGLEWMGWISAHNANTNYAQKLQGRVTMTTDTSTSTAYMELRSLRSDDTAMYYCARLYRNWFDPWGQGTLVTVSS
VL: QSALTQPASVSGSPGQSITISCTGTSSDVGGYNYVSWYQQHPGKAPKLMIYDVSKRPSGVSNRFSGSKSGNTASLTISGLQAEDEADYYCCSYAGSSTLLFGGGTKLTVL
notes: as for B4
IC50 [1]: 1.97 nM | binding result [2]: binds | HT29 IL-8 release, IC50 [3]: 1.33 nM | binding result (mouse LIGHT): no binding | IC50 [4]: 1.09 nM | Kd [5]: 1.57 nM | Kd [6]: 0.561 nM | Kd [7]: 0.881 nM

Further lines, results first:

IC50 [1]: 2.66 nM | binding result [2]: binds | HT29 IL-8 release, IC50 [3]: 0.578 nM | IC50 [4]: 1.6 nM | Kd [5]: 23.6 nM | Kd [6]: 1.64 nM | Kd [7]: 1.02 nM
B1: 62C01 (purified from hybridoma supernatant) (antibody, V domains shown)
VH: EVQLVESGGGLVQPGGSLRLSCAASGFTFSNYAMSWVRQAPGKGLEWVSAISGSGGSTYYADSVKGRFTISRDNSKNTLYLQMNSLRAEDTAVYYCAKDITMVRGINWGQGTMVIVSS
VL: DIQMTQSPSSVSASVGDRVTITCRASQGISNWLAWYQQKPGKAPKLLIFAASSLQSGVPSRFSGSGSGTDFTLTISSLQPEDFATYYCQQSNSFPLTFGGGTKVEIK
notes: as for B2

IC50 [8]: 2.19 nM | IC50 [9]: 1.15 nM | binding result [10]: binds | HT29 IL-8 release, IC50 [11]: 0.29 nM
B3: 31A10 in human IgG4(PE) format (antibody, V domains shown)
VH: B2 VH
VL: B2 VL

IC50 [8]: 1.62 nM | IC50 [9]: 0.82 nM | binding result [10]: binds | HT29 IL-8 release, IC50 [11]: 0.18 nM | Kd [12]: 0.202 nM | Kd [13]: 0.018 nM
B5: 98C07 in human IgG4(PE) format (antibody, V domains shown)
VH: QVQLVESGGGLVKPGGSLRLSCAASGFTFSDYYMSWIRQAPGKGLEWVSYISRSSFIYYSESVKGRFTISRDNAKNSLYLQMNSLRAEDTAVYYCARWELSPFDYWGQGTLVTVSS
VL: DIQMTQSPSSLSASVGDRVTITCRASQGISNYLAWFQQKPGKAPKSLIYAASSLQSGVPSKFSGSGSGTDFTLTISSLQPEDFATYFCQQYNTYPFTFGPGTKVDIK

IC50 [1]: 1.65 nM | binding result [2]: binds | HT29 IL-8 release, IC50 [3]: 0.917 nM | binding result (mouse LIGHT): no binding | IC50 [4]: 0.898 nM | Kd [5]: 0.161 nM | Kd [6]: 0.084 nM | Kd [7]: 0.062 nM
B6: 42A02 (purified from hybridoma supernatant) (antibody, V domains shown)
VH: EVQLVESGGGLVQPGGSLRLSCAASGFTFSSYVMSWVRQAPGKGLEWVSVISSSGVTTYYADSVKGRFTISRDNSKNTLYLQMNSLRAEETAVYYCAKGNYGSGSFCDYWGQGTPVTVSS
VL: SYVLTQPPSVSVAPGKTARITCGGNNIGSKSVHWYQQRPGQAPILVIYYDSDRPSGIPERFSGSNSGNSATLTISRVEAGDEADYHCQVWESSSDHPVFGGGTKLTVL
notes: as for B4

IC50 [1]: 1.57 nM | binding result [2]: binds | HT29 IL-8 release, IC50 [3]: 1.31 nM | binding result (mouse LIGHT): no binding | IC50 [4]: 0.895 nM | Kd [5]: 3.37 nM | Kd [6]: 0.156 nM | Kd [7]: 0.492 nM
B8: 14B09 (purified from hybridoma supernatant) (antibody, V domains shown)
VH: QVQLVQSGAEVKKPGASVKVSCRASGYTFTSYLMHWVRQAPGQRLEWMGWINVGNGNTKYSQKFQGRVTITRDTSASTAYMELSGLRSEDTAVYYCARNYYNWFDPWGQGTLVTVSS
VL: B9 VL with C91F, L99V, L100V
notes: as for B4
